B1: CD99 endogenously expressed on cells (Jurkat, KOPT-K1) (receptor)
chain: DGGFDLSDALPDNENKKPTAIPKKPSAGDDFDLGDAVVDGENDDPRPPNPPKPMPNPNPNHPSSSGSFSDADLADGVSGGEGKGGSDGGGSHRKEGEEADAPGVIPGIVGAVVVAVAGAISSFIAYQKKKLCFKENAEQGEVDMESHRNANAEPAVQRTLLEK
modifications: O-linked glycosylation (natural, on cells)
notes: also called endogenously expressed CD99; CD99 on cells

Tests used:
[1] = biological target: T1, tetravalent SAV-10A1 Fab complex (A4 streptavidin with biotinylated 10A1 Fab) (UniProt P22629 37-163, limits assumed, biotin on the C-terminal AviTag of the Fab heavy chain); test: flow cytometry titration on KOPT-K1 cells (FIG. 4C)
T1 construct: also called tetravalent SAV-Fab complex; not shown: N-terminal 6xHis tag
T1 sequence (P22629 37-163 limits assumed, one chain of several): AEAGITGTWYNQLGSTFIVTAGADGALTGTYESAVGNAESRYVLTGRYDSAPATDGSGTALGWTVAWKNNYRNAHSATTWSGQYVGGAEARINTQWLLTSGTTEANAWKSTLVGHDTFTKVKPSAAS

[2] = biological target: T2, CD99 peptide containing the 10A1 epitope, Ac-GENDDPRPPNPPKPM-amide (human); test: X-ray crystal structure of the complex, 3.10 Å
T2 construct: Synthetic peptide (New England Peptide); also called residues 62-76
T2 peptide: Ac-GENDDPRPPNPPKPM-NH2

[3] = biological target: B1; test: cell-based or functional assay
[4] = biological target: B1; test: flow cytometry titration on KOPT-K1 cells, anti-Fab secondary antibody (FIG. 3B)
[5] = biological target: B1; test: flow cytometry titration on KOPT-K1 cells; apparent KD (FIG. 3B)

B1
binding result [1]: binds

B2: 10A1 Fab (Fab, V domains shown)
VH: QVQLQQSGPVLVKPSQTLSLTCAISGDSISSDTTAWSWIRRSPSRGLEWLGWTYYRSKWFNYYAVSVKGRVTINPDTSKNQFSLQLSSVTPEDTAVYYCARGNGNGGMDVWGQGTTVTVSS
VL: SYVLTQPASASVSPGQTARITCSGDALPKQYAYWYQQKPGQAPVLVIFKDSERPSGVPERFSGSSSGTTVTLTISGAQAEDEADYYCQSVDNSGFYQVFGGGTQLTVL
notes: Fab made in E. coli by attaching VH and VL to CH1 and CL; also called 10A1 in the Fab format; monovalent 10A1
binding result [2]: binds

B3: 10A1 IgG-HCscFv (antibody)
heavy: QVQLQQSGPVLVKPSQTLSLTCAISGDSISSDTTAWSWIRRSPSRGLEWLGWTYYRSKWFNYYAVSVKGRVTINPDTSKNQFSLQLSSVTPEDTAVYYCARGNGNGGMDVWGQGTTVTVSSASTKGPSVFPLAPSSKSTSGGTAALGCLVKDYFPEPVTVSWNSGALTSGVHTFPAVLQSSGLYSLSSVVTVPSSSLGTQTYICNVNHKPSNTKVDKKVEPKSCDKTHTCPPCPAPEAAGGPSVFLFPPKPKDTLMISRTPEVTCVVVDVSHEDPEVKFNWYVDGVEVHNAKTKPREEQYNSTYRVVSVLTVLHQDWLNGKEYKCKVSNKALGAPIEKTISKAKGQPREPQVYTLPPSREEMTKNQVSLTCLVKGFYPSDIAVEWESNGQPENNYKTTPPVLDSDGSFFLYSKLTVDKSRWQQGNVFSCSVMHEALHNHYTQKSLSLSPGKSSGSSGSSSSSGSSSQVQLQQSGPVLVKPSQTLSLTCAISGDSISSDTTAWSWIRRSPSRGLEWLGWTYYRSKWFNYYAVSVKGRVTINPDTSKNQFSLQLSSVTPEDTAVYYCARGNGNGGMDVWGQGTTVTVSSGSSSSSSGSSGSSSSSYVLTQPASASVSPGQTARITCSGDALPKQYAYWYQQKPGQAPVLVIFKDSERPSGVPERFSGSSSGTTVTLTISGAQAEDEADYYCQSVDNSGFYQVFGGGTQLTVL
light: SYVLTQPASASVSPGQTARITCSGDALPKQYAYWYQQKPGQAPVLVIFKDSERPSGVPERFSGSSSGTTVTLTISGAQAEDEADYYCQSVDNSGFYQVFGGGTQLTVLRTVAAPSVFIFPPSDEQLKSGTASVVCLLNNFYPREAKVQWKVDNALQSGNSQESVTEQDSKDSTYSLSSTLTLSKADYEKHKVYACEVTHQGLSSPVTKSFNRGEC
notes: Human IgG1 LALA-PG with the 10A1 scFv appended by a linker to the C-terminus of each heavy chain; Valency of four; also called 10A1 HCscFv; 10A1 HC-scFv
IC50 of cytotoxicity (Annexin V, KOPT-K1 cells, 18 hours) [3]: 82 nM Fv
maximum fluorescence intensity relative to the bivalent and dodecavalent antibodies [4]: ~0.5 fold

B4: 10A1 IgG-E345R (antibody)
heavy: QVQLQQSGPVLVKPSQTLSLTCAISGDSISSDTTAWSWIRRSPSRGLEWLGWTYYRSKWFNYYAVSVKGRVTINPDTSKNQFSLQLSSVTPEDTAVYYCARGNGNGGMDVWGQGTTVTVSSASTKGPSVFPLAPSSKSTSGGTAALGCLVKDYFPEPVTVSWNSGALTSGVHTFPAVLQSSGLYSLSSVVTVPSSSLGTQTYICNVNHKPSNTKVDKKVEPKSCDKTHTCPPCPAPEAAGGPSVFLFPPKPKDTLMISRTPEVTCVVVDVSHEDPEVKFNWYVDGVEVHNAKTKPREEQYNSTYRVVSVLTVLHQDWLNGKEYKCKVSNKALGAPIEKTISKAKGQPRRPQVYTLPPSREEMTKNQVSLTCLVKGFYPSDIAVEWESNGQPENNYKTTPPVLDSDGSFFLYSKLTVDKSRWQQGNVFSCSVMHEALHNHYTQKSLSLSPGK
light: SYVLTQPASASVSPGQTARITCSGDALPKQYAYWYQQKPGQAPVLVIFKDSERPSGVPERFSGSSSGTTVTLTISGAQAEDEADYYCQSVDNSGFYQVFGGGTQLTVLRTVAAPSVFIFPPSDEQLKSGTASVVCLLNNFYPREAKVQWKVDNALQSGNSQESVTEQDSKDSTYSLSSTLTLSKADYEKHKVYACEVTHQGLSSPVTKSFNRGEC
notes: Valency of twelve as a hexamer; also called 10A1 E345R; 'inducible hexamer'
IC50 of cytotoxicity (Annexin V, KOPT-K1 cells, 18 hours) [3]: 299 nM Fv
fold higher KD than IgG-RGY, IgG-HCscFv and IgG [5]: ~3 fold

— patent publication US20240190985A1 (NEW YORK UNIVERSITY, published 2024)
